Results taken from patent US20150065381A1.
Where “and” joins values, the source holds several entries; their conditions need not be identical. Equal values may be shown once.

Legend:
[1] = target: BG505 envelope (gp120 monomer released from lysed pseudovirus) (HIV-1); experiment: antigen capture ELISA, mAb 0.3 ug/ml, plate 1
[2] = target: aMLV envelope (from lysed pseudovirus); experiment: antigen capture ELISA, mAb 0.3 ug/ml, plate 1
[3] = target: BG505 envelope (gp120 monomer released from lysed pseudovirus) (HIV-1); experiment: antigen capture ELISA, mAb 0.8 ug/ml, plate 1
[4] = target: aMLV envelope (from lysed pseudovirus); experiment: antigen capture ELISA, mAb 0.8 ug/ml, plate 1
[5] = target: HIV-1 envelope of gp160 clone B-Acute-010.c08 (HIV-1); experiment: capture ELISA, original data
[6] = target: HIV-1 envelope clone G-011.c02 (multiclade gp160 clone panel) (HIV-1); experiment: capture ELISA, original data
[7] = target: HIV-1 envelope clone G-011.c05 (multiclade gp160 clone panel) (HIV-1); experiment: capture ELISA, original data
[8] = target: HIV-1 envelope of gp160 clone B-Acute-010.c09 (HIV-1); experiment: capture ELISA, original data
[9] = target: HIV-1 envelope of gp160 clone B-Chronic-014.c02 (HIV-1); experiment: capture ELISA, original data
[10] = target: HIV-1 envelope of gp160 clone AG-010.c14 (HIV-1); experiment: capture ELISA, original data
[11] = target: HIV-1 envelope of gp160 clone B-Acute-008.c11 (HIV-1); experiment: capture ELISA, original data
[12] = target: HIV-1 envelope of gp160 clone AG-010.c11 (HIV-1); experiment: capture ELISA, original data
[13] = target: HIV-1 envelope of gp160 clone B-Acute-010.c08 (HIV-1); experiment: capture ELISA, plate 1, mAb 0.8 ug/ml
[14] = target: HIV-1 JRCSF envelope (HIV-1) (UniProt P20871); experiment: capture ELISA, plate 1, mAb 0.8 ug/ml
[15] = target: HIV-1 envelope of gp160 clone AG-010.c14 (HIV-1); experiment: capture ELISA, plate 1, mAb 0.8 ug/ml
[16] = target: HIV-1 envelope of gp160 clone B-Acute-009-c08 (HIV-1); experiment: capture ELISA, plate 1, mAb 0.8 ug/ml
[17] = target: HIV-1 envelope clone BF-002.c08 (multiclade gp160 clone panel) (HIV-1); experiment: capture ELISA, plate 1, mAb 0.8 ug/ml
[18] = target: HIV-1 envelope clone F1-002.c11 (multiclade gp160 clone panel) (HIV-1); experiment: capture ELISA, plate 1, mAb 0.8 ug/ml
[19] = target: HIV-1 envelope of gp160 clone AG-010.c11 (HIV-1); experiment: capture ELISA, plate 1, mAb 0.8 ug/ml
[20] = target: HIV-1 envelope clone BF-002.c05 (multiclade gp160 clone panel) (HIV-1); experiment: capture ELISA, plate 1, mAb 2.5 ug/ml
[21] = target: HIV-1 envelope of gp160 clone B-Acute-010.c08 (HIV-1); experiment: capture ELISA, plate 1, mAb 2.5 ug/ml
[22] = target: HIV-1 envelope clone G-011.c02 (multiclade gp160 clone panel) (HIV-1); experiment: capture ELISA, plate 1, mAb 2.5 ug/ml
[23] = target: HIV-1 envelope clone G-011.c05 (multiclade gp160 clone panel) (HIV-1); experiment: capture ELISA, plate 1, mAb 2.5 ug/ml
[24] = target: HIV-1 JRFL envelope (HIV-1); experiment: capture ELISA, plate 1, mAb 2.5 ug/ml
[25] = target: HIV-1 envelope of gp160 clone B-Acute-010.c09 (HIV-1); experiment: capture ELISA, plate 1, mAb 2.5 ug/ml
[26] = target: HIV-1 envelope of gp160 clone B-Chronic-014.c02 (HIV-1); experiment: capture ELISA, plate 1, mAb 2.5 ug/ml
[27] = target: HIV-1 JRCSF envelope (HIV-1) (UniProt P20871); experiment: capture ELISA, plate 1, mAb 2.5 ug/ml
[28] = target: HIV-1 envelope of gp160 clone AG-010.c14 (HIV-1); experiment: capture ELISA, plate 1, mAb 2.5 ug/ml
[29] = target: HIV-1 envelope of gp160 clone B-Acute-009-c08 (HIV-1); experiment: capture ELISA, plate 1, mAb 2.5 ug/ml
[30] = target: HIV-1 envelope clone BF-002.c08 (multiclade gp160 clone panel) (HIV-1); experiment: capture ELISA, plate 1, mAb 2.5 ug/ml
[31] = target: HIV-1 envelope clone F1-002.c11 (multiclade gp160 clone panel) (HIV-1); experiment: capture ELISA, plate 1, mAb 2.5 ug/ml
[32] = target: HIV-1 envelope of gp160 clone B-Acute-008.c11 (HIV-1); experiment: capture ELISA, plate 1, mAb 2.5 ug/ml
[33] = target: HIV-1 envelope of gp160 clone AG-010.c11 (HIV-1); experiment: capture ELISA, plate 1, mAb 2.5 ug/ml
[34] = target: HIV-1 16055 envelope (HIV-1); experiment: capture ELISA, plate 1, mAb 2.5 ug/ml
[35] = target: HIV-1 envelope clone F1-002.c16 (multiclade gp160 clone panel) (HIV-1); experiment: capture ELISA, plate 1, mAb 2.5 ug/ml
[36] = target: BG505 envelope (gp120 monomer released from lysed pseudovirus) (HIV-1); experiment: antigen capture ELISA, mAb 2.5 ug/ml, plate 2
[37] = target: aMLV envelope (from lysed pseudovirus); experiment: antigen capture ELISA, mAb 2.5 ug/ml, plate 2
[38] = target: BG505 envelope (gp120 monomer released from lysed pseudovirus) (HIV-1); experiment: antigen capture ELISA, mAb 7.5 ug/ml, plate 2
[39] = target: aMLV envelope (from lysed pseudovirus); experiment: antigen capture ELISA, mAb 7.5 ug/ml, plate 2

PGT151 (antibody)
ELISA OD [1]: 0.057 OD | ELISA OD [2]: 0.068 OD and 0.057 OD | ELISA OD [3]: 0.054 OD | ELISA OD [4]: 0.054 OD and 0.05 OD | ELISA OD [5]: 0.211 OD | ELISA OD (original data) [6]: 0.086 OD | ELISA OD (original data) [7]: 0.145 OD | ELISA OD [8]: 0.092 OD | ELISA OD [9]: 0.247 OD | ELISA OD [10]: 0.522 OD | ELISA OD [11]: 0.321 OD | ELISA OD [12]: 0.119 OD | ELISA OD [13]: 0.124 OD | ELISA OD [14]: 0.058 OD and 0.056 OD | ELISA OD [15]: 0.102 OD | ELISA OD [16]: 0.066 OD | ELISA OD [17]: 0.05 OD | ELISA OD [18]: 0.065 OD | ELISA OD [19]: 0.057 OD | ELISA OD [20]: 0.148 OD | ELISA OD [21]: 0.243 OD | ELISA OD [22]: 0.067 OD | ELISA OD [23]: 0.073 OD | ELISA OD [24]: 0.078 OD and 0.06 OD | ELISA OD [25]: 0.06 OD | ELISA OD [26]: 0.206 OD | ELISA OD [27]: 0.087 OD and 0.063 OD | ELISA OD [28]: 0.164 OD | ELISA OD [29]: 0.076 OD | ELISA OD [30]: 0.062 OD | ELISA OD [31]: 0.063 OD | ELISA OD [32]: 0.152 OD | ELISA OD [33]: 0.062 OD | ELISA OD [34]: 0.091 OD and 0.061 OD | ELISA OD [35]: 0.081 OD | ELISA OD [36]: 0.063 OD | ELISA OD [37]: 0.075 OD and 0.104 OD | ELISA OD [38]: 0.094 OD | ELISA OD [39]: 0.114 OD and 0.116 OD
